Measured values from publication PMC9822835 (Computational and Structural Biotechnology Journal, 2022).

Target: Tumor necrosis factor alpha (TNF-α) (Homo sapiens, UniProt P01375)
Experiment: SPR

Tumor necrosis factor alpha (TNF-α), sequence (P01375 whole entry): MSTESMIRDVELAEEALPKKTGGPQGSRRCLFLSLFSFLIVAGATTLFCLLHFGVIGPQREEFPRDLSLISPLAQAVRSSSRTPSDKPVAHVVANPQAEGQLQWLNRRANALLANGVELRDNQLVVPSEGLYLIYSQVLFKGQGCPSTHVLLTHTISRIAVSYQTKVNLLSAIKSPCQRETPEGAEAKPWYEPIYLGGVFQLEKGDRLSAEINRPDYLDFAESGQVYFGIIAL

B1: VHH2^E50V&T53W (VHH)
VHH: QVQLVESGGGLVQPGGSLRLSCAASGFTFSNYWMYWVRQAPGKGLEWVSVINWNGLITKYPDSVKGRFTISRDNAKNTLYLQMNSLKPEDTALYYCARSPSGFNRGQGTQVTVSS
B1 showed a Kd of 4.6 nM.
